Where two headings read alike, the source gives them in different places.
Legend:
[1] = target: T1, vanC2 D-Ala-D-Ser ligase (EcfDdls) (Enterococcus casseliflavus, UniProt Q47720); assay: malachite green inorganic phosphate detection assay with purified enzyme; assay type: biochemical
T1 construct: C-terminal 6x His-tagged EcfDdls, strain SSK, ~39 kDa

[2] = test system: N[C@H](CO)C(=O)O; assay: Michaelis-Menten kinetics (Km2), inorganic phosphate detection assay; assay type: biochemical, Enterococcus casseliflavus; conditions: ATP, MgCl2 subsite […] (second substrate binding site)
[3] = test system: Nc1ncnc2c1ncn2[C@@H]1O[C@H](COP(=O)(O)OP(=O)(O)OP(=O)(O)O)[C@@H](O)[C@H]1O; assay: Michaelis-Menten kinetics (Km), inorganic phosphate detection assay; assay type: biochemical, Enterococcus casseliflavus; conditions: MgCl2
[4] = test system: C[C@@H](N)C(=O)O; assay: Michaelis-Menten kinetics (Km1), inorganic phosphate detection assay; assay type: biochemical, Enterococcus casseliflavus; conditions: ATP, MgCl2 subsite […] (first substrate binding site)

T1 sequence (Q47720 whole entry): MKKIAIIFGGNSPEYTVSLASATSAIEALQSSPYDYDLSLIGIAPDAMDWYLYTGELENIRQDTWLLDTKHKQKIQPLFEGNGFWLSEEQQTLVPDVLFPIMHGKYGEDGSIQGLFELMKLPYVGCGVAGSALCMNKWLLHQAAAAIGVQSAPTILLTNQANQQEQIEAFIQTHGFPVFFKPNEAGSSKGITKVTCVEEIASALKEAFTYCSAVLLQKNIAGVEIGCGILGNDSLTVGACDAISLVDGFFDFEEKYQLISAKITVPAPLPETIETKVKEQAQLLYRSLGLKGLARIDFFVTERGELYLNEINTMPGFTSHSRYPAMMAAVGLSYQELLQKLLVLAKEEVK

## Cc1cc(CN2CCN(Cc3nc(C(C)C)no3)CC2)no1 [CID 45805715, 1-[(5-methyl-1,2-oxazol-3-yl)methyl]-4-{[3-(propan-2-yl)-1,2,4-oxadiazol-5-yl]methyl}piperazine]
[1]; read-out: IC50
  IC50: 76.7 ± 1.01 µM

## vanC2 D-Ala-D-Ser ligase (EcfDdls) (Enterococcus casseliflavus)
[2]
  Km: 800 ± 100 µM
[3]
  Km: 24.31 ± 4.1 µM
[4]
  Km: 1120 ± 100 µM

## N[C@@H]1CON=C1O [DCS, D-cycloserine]
[1]
  IC50: 313 ± 1.6 µM
